This note sets out measurements from article PMC7052140.

Assay [1] addresses Cyt1Aa E32Q activated toxin (Bacillus thuringiensis subsp. israelensis).
Assay [2] has as its target Cyt1Aa E45Q activated toxin (Bacillus thuringiensis subsp. israelensis).
Assay [3] has as its target Cyt1Aa Q168E activated toxin (Bacillus thuringiensis subsp. israelensis).
Assay [4] addresses Cyt1Aa activated toxin, wild type (Bacillus thuringiensis subsp. israelensis) (UniProt P0A382). The experiment in a line: atomic force microscopy on supported lipid bilayers.

Regarding “Cyt1Aa E32Q activated toxin (domain or fragment)”, in assay [1], the fold reduction of cytotoxicity on HEK293 cells against the WT toxin is 2.4 fold.
In turn, “Cyt1Aa E45Q activated toxin (domain or fragment)” registered a fold reduction of cytotoxicity on HEK293 cells against the WT toxin in assay [2] of 14 fold.
In turn, “Cyt1Aa Q168E activated toxin (domain or fragment)” yielded a cytotoxicity on HEK293 cells (LC50) in assay [3] greater than 30 µM.
Substance “Cyt1Aa activated toxin, wild type (from UniProt P0A382 1-249) (domain or fragment)” returned a stoichiometry N in assay [4] of 56.

As a reminder, the stoichiometry N is a count of units in the complex or per binding partner.
